Legend:
Test in all cases: HPLC, Michaelis-Menten fit
Conditions in all cases: 20 mM Tris-HCl pH 8.0, 30 °C, O2 as electron acceptor
[1] = substrate: CCCc1ccc(O)c(OC)c1; assay type: biochemical, Rhodococcus jostii
[2] = substrate: COCc1ccc(O)cc1; assay type: biochemical, Rhodococcus jostii
[3] = substrate: COc1cc(CO)ccc1O; assay type: biochemical, Rhodococcus jostii
[4] = substrate: Oc1ccc(Cc2ccc(O)cc2)cc1; assay type: biochemical, Rhodococcus jostii
[5] = substrate: CCCc1ccc(O)c(OC)c1; assay type: biochemical, Penicillium simplicissimum
[6] = substrate: COCc1ccc(O)cc1; assay type: biochemical, Penicillium simplicissimum
[7] = substrate: COc1cc(CO)ccc1O; assay type: biochemical, Penicillium simplicissimum
[8] = substrate: Oc1ccc(Cc2ccc(O)cc2)cc1; assay type: biochemical, Penicillium simplicissimum

B1: EUGO (Rhodococcus jostii RHA1) (protein)
chain: MTRTLPPGVSDERFDAALQRFRDVVGDKWVLSTADELEAFRDPYPVGAAEANLPSAVVSPESTEQVQDIVRIANEYGIPLSPVSTGKNNGYGGAAPRLSGSVIVKTGERMNRILEVNEKYGYALLEPGVTYFDLYEYLQSHDSGLMLDCPDLGWGSVVGNTLDRGVGYTPYGDHFMWQTGLEVVLPQGEVMRTGMGALPGSDAWQLFPYGFGPFPDGMFTQSNLGIVTKMGIALMQRPPASQSFLITFDKEEDLEQIVDIMLPLRINMAPLQNVPVLRNIFMDAAAVSKRTEWFDGDGPMPAEAIERMKKDLDLGFWNFYGTLYGPPPLIEMYYGMIKEAFGKIPGARFFTHEERDDRGGHVLQDRHKINNGIPSLDELQLLDWVPNGGHIGFSPVSAPDGREAMKQFEMVRNRANEYNKDYAAQFIIGLREMHHVCLFIYDTAIPEAREEILQMTKVLVREAAEAGYGEYRTHNALMDDVMATFNWGDGALLKFHEKIKDALDPNGIIAPGKSGIWSQRFRGQNL
notes: synthetic gene, expressed and purified like BpfA (E. coli, Ni-NTA); contains flavin
Protein B1 has a Km [1] of 59.3 ± 0.7 µM, a kcat [1] of 4.8 ± 0.002 s⁻¹ and a kcat/Km [1] of 80.9 b. For the same protein, the Km [2] was 73.2 ± 1.5 µM, the kcat [2] was 4.1 ± 0.01 s⁻¹ and the kcat/Km [2] was 56.0 a. The Km [3] was 89.6 ± 11.3 µM, the kcat [3] was 5.9 ± 0.3 s⁻¹ and the kcat/Km [3] was 65.8 a. It also gave a Km [4] of 185.1 ± 11.3 µM, a kcat [4] of 0.04 ± 0.003 s⁻¹ and a kcat/Km [4] of 0.2 b.

B2: VAO (Penicillium simplicissimum) (protein)
chain: MSKTQEFRPLTLPPKLSLSDFNEFIQDIIRIVGSENVEVISSKDQIVDGSYMKPTHTHDPHHVMDQDYFLASAIVAPRNVADVQSIVGLANKFSFPLWPISIGRNSGYGGAAPRVSGSVVLDMGKNMNRVLEVNVEGAYCVVEPGVTYHDLHNYLEANNLRDKLWLDVPDLGGGSVLGNAVERGVGYTPYGDHWMMHSGMEVVLANGELLRTGMGALPDPKRPETMGLKPEDQPWSKIAHLFPYGFGPYIDGLFSQSNMGIVTKIGIWLMPNPRGYQSYLITLPKDGDLKQAVDIIRPLRLGMALQNVPTIRHILLDAAVLGDKRSYSSRTEPLSDEELDKIAKQLNLGRWNFYGALYGPEPIRRVLWETIKDAFSAIPGVKFYFPEDTPENSVLRVRDKTMQGIPTYDELKWIDWLPNGAHLFFSPIAKVSGEDAMMQYAVTKKRCQEAGLDFIGTFTVGMREMHHIVCIVFNKKDLIQKRKVQWLMRTLIDDCAANGWGEYRTHLAFMDQIMETYNWNNSSFLRFNEVLKNAVDPNGIIAPGKSGVWPSQYSHVTWKL
notes: as for B1
B2 was tested, and the Km [5] was 71.4 ± 11.6 µM, the kcat [5] was 5 ± 0.02 s⁻¹ and the kcat/Km [5] was 70.4 b. For the same protein, the Km [6] was 72.0 ± 7.1 µM, the kcat [6] was 3.9 ± 0.009 s⁻¹ and the kcat/Km [6] was 54.2 a. The Km [7] was 140 ± 12.3 µM, the kcat [7] was 6.0 ± 0.2 s⁻¹ and the kcat/Km [7] was 42.9 b. The Km [8] was 205.6 ± 18.5 µM, the kcat [8] was 0.05 ± 0.001 s⁻¹ and the kcat/Km [8] was 0.2 b.
